The record followed here is patent US8688427B2, “Enzyme catalysts for diels-alder reactions” (University of Washington, priority 2008, dated 2014).

Common to all, as to assay type: biochemical
Data set [1] in a line: Plate assay of crude cell lysate, second round of active site optimization. The following applies: Combinatorial Mutation Results; 4 colonies/Kunkel assayed. The method, then: Since it was unreasonable to prepare the 176 enzyme variants in large scale, a plate assay was developed in which colonies directly from a Kunkel mutagenesis (8) reaction could be screened. Kunkel mutagenesis reactions were transformed directly into BL21(DE3)™ (Invitrogen) in order to generate each of the desired mutants. Four colonies from each plated reaction was picked and grown at 37° C. in 0.5 mL of LB-Kanamycin overnight. […]. This culture was grown for 2-3 hours at 37° C., after which 50 μL of 10 mM IPTG was added to each well (0.5 mM Final) in order to induce expression. The cells were then grown for 24 hours at 18° C., harvested, and stored at −20° C. until ready for assaying. To assay, crude cell lysate was prepared by resuspending the cells in 500 uL of PBS and lysing through 3 freeze/thaw cycles (15 minutes at −80° C., 40 minutes at 25° C.), followed by centrifugation at 4000 rpm for 30 minutes. […] Samples from each reaction were then quenched and product detected using a liquid chromatography-tandem mass spectroscopy.
To help remove some of this noise, samples showing WT activity were discarded if at least 2 of the other colonies picked from that Kunkel reaction did show an effect on activity (either greater or less than WT). […] The relative effect of each mutation was calculated. […]

Data set [2] can be described thus: Kinetic characterization: reaction velocity versus diene and dienophile concentration. The method, then:
(A) Dependence of reaction velocity on diene concentration for different fixed dienophile concentrations. The diene concentration was varied from 3.0 to 0.18 mM with a fixed concentration of 100 mM (⋄), 66 mM (Δ), 44 mM (⋄), 30 mM (◯), 20 mM (◯), or 13 mM (●) dienophile (B) Dependence of reaction velocity on dienophile concentration for different fixed diene concentrations. The dienophile was varied from 100 to 13.0 mM with a fixed concentration of 3 mM (♦), 2 mM (▴), 1.3 mM (∇), 0.9 mM (Δ), 0.6 mM (⋄), 0.4 mM (□), 0.26 mM (◯), or 0.18 mM (●) […]. Reactions were carried out with 20 μM protein in PBS at 298 K.
The kinetics of the DA—20—10 catalyzed reaction was characterized by measuring the dependence of the reaction velocity on the concentration of both diene and dienophile. The effective molarity (kcat/kuncat) of DA—20—10 is 100 M, and the rate enhancement (kcat/(kuncat*KM_diene)) in the presence of saturating dienophile and limiting diene is 1.0×10^5. At high substrate concentrations DA—20—10 proceeds for more than 30 turnovers before the enzyme loses activity. At higher enzyme concentrations more than 80% of the diene substrate is converted to product.
The errors represent the calculated 95% confidence interval. The parameter a describes the cooperativity of binding between the two substrates: a value greater than one indicates negative cooperativity, whereas a value lower then one indicates positive cooperativity. α could not be determined for DA—20—00. Kinetic parameters for catalytic antibodies 7D4 and 4D5 were taken from (10, 17).

A short description of data set [3]: Stereospecificity, chiral column LC-MSMS. The method, then:
The transition states which lead to the four possible ortho-stereoisomers are shown above the reaction chromatograms. Background reaction: 2 mM diene and 70 mM dieneophile in a PBS solution for 24 hours at 298 K. DA—20—10 reaction: 50 μM protein, 0.5 mM diene, and 10 mM dieneophile in a PBS solution for 48 hours at 298K. The four stereoisomers were separated using liquid chromatography (11), and samples injected onto a Daicel AD-H column.
A liquid chromatography-tandem mass spectroscopy with a chiral column was used to detect each of the four experimentally observed stereoismers. The chiral column used in this work was the same as in (10), so it was predicted that the product peaks would come out in the same order. To validate that the endo and exo products came out as expected each was synthesized, and run either separately or together to identify the endo and exo peaks. The peaks observed come out in the same order and same time as reported in Cannizzaro et al. (10).
In order to quantify the stereospecificity of DA—20—10, a reaction with 2 mM diene, 70 mM dieneophile, PBS, pH 7.4, in the presence or absence of 80 μM protein was run for 24 hr at 298K. […] The reactions were shaken for 5 minutes, centrifuged for 5 minutes, after which the organic layer was removed and analyzed with a LC-MSMS assay. […]

Data set [4] can be described thus: Substrate specificity, LC-MS of product peak area formed per hour. The following applies: 0.2 mM diene, 10 mM dienophile, 60 μM protein, PBS, 298K. The method, then: FIG. 19 illustrates the substrate specificity of DA—20—10 and a single mutant of DA—20—10, H287N. Reactions were carried out with 0.2 mM diene 1 (FIG. 1), and 10 mM of one of the six dienophiles depicted in PBS at 298K in the absence or presence of 60 μM DA—20—10 or DA—20—10_H287N. The depicted values in the figure are the mean (bars) and standard deviation (error bars) of four independent measurements of the product peak area (arbitrary units) formed per hour, determined using a liquid chromatography-mass spectroscopy assay.
To experimentally determine substrate specificities each dienophile from FIG. 19 was either purchased or synthesized. The dienophiles were assayed in the presence or absence of 60 μM DA—20—10 or the H287N mutant over 30 hours with 10 mM dienophile and 0.2 mM diene at 298K in a PBS solution. A sample of the reaction was taken at four different time points, quenched, and filtered as previously described. To detect product a liquid chromatography-mass spectroscopy assay was used. […] The average area of each detected peak formed per hour was used to determine the relative amount of product formed with and without enzyme.
Besides stereoselectivity, the level of control over a chemical reaction by a designed enzyme is reflected by its substrate specificity. […] The activity against each of the substrates was measured using a liquid-chromatography mass spectroscopy assay.

B1: DA_20_10: DA_20_04 with A272N, Q149R, A173C (protein)
chain: MEIPVIEPLFTKVTEDIPGATGPVFDKNGDFYIVAPYVEVNGKPAGEILRIDLKTGKKTVICKPEVNGYGGIPIGCQCDRDANQLFVADMRLGLLVVQTDGTFEEIAKKDSEGRRMQGCAYCAFDYEGNLWITAPAGEVAPADFTISLREKFGSIYCFTTDGQMIQVDTAFQCPAGIAVRHMNDGRPYQLIVAEQPTKKLWSYDIKGPAKIENKKVWGHIPGTHKGGAAGMDFDEDNNLLVANWGSSHIEVFGPDGGQPKMRIRCPFEKPANLHFKPQTKTIFVTEHENNAVWKFEWQRNGKKQYCETLKFGIFGSLEHHHHHH
modifications: Enzyme catalyst for Diels-Alder reaction
notes: DA_20_04 with A272N, Q149R, A173C
B1: in data set [1], the “Relative Effect on Activity” value is recorded as 7.96. The “increase in overall catalytic efficiency over the original design model DA_20_00” value in data set [2] is “roughly 2200 fold”. For the same molecule, the “kcat relative to those of 7D4 and 4D5” value in data set [2] (DA_20_10 at 298K, antibodies at 310K) was determined as 10 fold. In addition, the “rate enhancement (kcat/(kuncat*KM_diene)) relative to either antibody” value in data set [2] (saturating dienophile and limiting diene, versus 7D4 and 4D5) stood at 20 fold. For the same molecule, in data set [2] (versus 7D4 and 4D5), the “effective molarity (kcat/kuncat) relative to either antibody” value turned out to be 20 fold. The “share of the expected 3R,4S product” value in data set [3] is recorded as greater than 97%. The stereospecificity entry in data set [3] (2 mM diene, 70 mM dienophile, PBS, pH 7.4, 80 μM protein, 24 hr, 298K) is reported as “greater than 97 % ee”. Also, in data set [4], the “substrate specificity (in words)” value is listed as “highly favor the substrate for which it was designed”.
